# In IntAct's records for PubMed 35512704:
# B1: Mothers against decapentaplegic homolog 4 (Homo sapiens), Q13485 (parent)
# chain: MDNMSITNTPTSNDACLSIVHSLMCHRQGGESETFAKRAIESLVKKLKEKKDELDSLITAITTNGAHPSKCVTIQRTLDGRLQVAGRKGFPHVIYARLWRWPDLHKNELKHVKYCQYAFDLKCDSVCVNPYHYERVVSPGIDLSGLTLQSNAPSSMMVKDEYVHDFEGQPSLSTEGHSIQTIQHPPSNRASTETYSTPALLAPSESNATSTANFPNIPVASTSQPASILGGSHSEGLLQIASGPQPGQQQNGFTGQPATYHHNSTTTWTGSRTAPYTPNLPHHQNGHLQHHPPMPPHPGHYWPVHNELAFQPPISNHPAPEYWCSIAYFEMDVQVGETFKVPSSCPIVTVDGYVDPSGGDRFCLGQLSNVHRTEAIERARLHIGKGVQLECKGEGDVWVRCLSDHAVFVQSYYLDREAGRAPGDAVHKIYPSAYIKVFDLRQCHRQMQQQAATAQAAAAAQAAAVAGNIPGPGSVGGIAPAISLSAAAGIGVDDLRRLCILRMSFVKGWGPDYPRQSIKETPCWIEIHLHRALQLLDEVLHTMPIADPQPLD
# partner: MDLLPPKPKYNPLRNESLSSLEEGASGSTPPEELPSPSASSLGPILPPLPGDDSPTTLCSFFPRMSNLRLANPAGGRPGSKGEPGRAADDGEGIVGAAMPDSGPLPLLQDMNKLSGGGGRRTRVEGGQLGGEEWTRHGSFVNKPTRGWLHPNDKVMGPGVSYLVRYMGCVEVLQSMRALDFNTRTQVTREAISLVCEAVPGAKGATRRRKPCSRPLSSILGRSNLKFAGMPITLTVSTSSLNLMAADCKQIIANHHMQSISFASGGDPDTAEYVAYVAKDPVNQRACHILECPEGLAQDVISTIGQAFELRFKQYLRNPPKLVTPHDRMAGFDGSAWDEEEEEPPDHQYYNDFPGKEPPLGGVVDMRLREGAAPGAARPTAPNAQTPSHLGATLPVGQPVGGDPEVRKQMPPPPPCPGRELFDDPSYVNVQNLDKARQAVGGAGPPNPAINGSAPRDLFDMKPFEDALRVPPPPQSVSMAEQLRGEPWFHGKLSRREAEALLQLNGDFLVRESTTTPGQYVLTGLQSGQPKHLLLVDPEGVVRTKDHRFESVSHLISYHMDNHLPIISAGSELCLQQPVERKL
# B2: Mothers against decapentaplegic homolog 4 (Homo sapiens), Q13485 (parent)
# chain: B1 chain
# partner: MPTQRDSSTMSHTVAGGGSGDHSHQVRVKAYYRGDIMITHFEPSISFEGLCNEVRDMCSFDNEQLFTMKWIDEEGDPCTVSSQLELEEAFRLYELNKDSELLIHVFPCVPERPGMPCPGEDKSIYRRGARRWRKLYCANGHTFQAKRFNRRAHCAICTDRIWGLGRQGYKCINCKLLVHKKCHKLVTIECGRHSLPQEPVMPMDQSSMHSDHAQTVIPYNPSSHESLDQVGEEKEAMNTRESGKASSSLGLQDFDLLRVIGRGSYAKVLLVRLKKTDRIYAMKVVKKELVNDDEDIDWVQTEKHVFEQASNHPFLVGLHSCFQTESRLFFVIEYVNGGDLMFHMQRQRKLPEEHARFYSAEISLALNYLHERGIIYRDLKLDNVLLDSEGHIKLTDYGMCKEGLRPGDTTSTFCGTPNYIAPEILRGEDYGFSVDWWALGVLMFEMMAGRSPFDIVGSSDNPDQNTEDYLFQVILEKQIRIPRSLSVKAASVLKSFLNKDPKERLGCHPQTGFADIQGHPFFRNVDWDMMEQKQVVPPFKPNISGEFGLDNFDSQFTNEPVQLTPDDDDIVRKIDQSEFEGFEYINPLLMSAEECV
# B3: Mothers against decapentaplegic homolog 4 (Homo sapiens), Q13485 (parent)
# chain: B1 chain
# partner: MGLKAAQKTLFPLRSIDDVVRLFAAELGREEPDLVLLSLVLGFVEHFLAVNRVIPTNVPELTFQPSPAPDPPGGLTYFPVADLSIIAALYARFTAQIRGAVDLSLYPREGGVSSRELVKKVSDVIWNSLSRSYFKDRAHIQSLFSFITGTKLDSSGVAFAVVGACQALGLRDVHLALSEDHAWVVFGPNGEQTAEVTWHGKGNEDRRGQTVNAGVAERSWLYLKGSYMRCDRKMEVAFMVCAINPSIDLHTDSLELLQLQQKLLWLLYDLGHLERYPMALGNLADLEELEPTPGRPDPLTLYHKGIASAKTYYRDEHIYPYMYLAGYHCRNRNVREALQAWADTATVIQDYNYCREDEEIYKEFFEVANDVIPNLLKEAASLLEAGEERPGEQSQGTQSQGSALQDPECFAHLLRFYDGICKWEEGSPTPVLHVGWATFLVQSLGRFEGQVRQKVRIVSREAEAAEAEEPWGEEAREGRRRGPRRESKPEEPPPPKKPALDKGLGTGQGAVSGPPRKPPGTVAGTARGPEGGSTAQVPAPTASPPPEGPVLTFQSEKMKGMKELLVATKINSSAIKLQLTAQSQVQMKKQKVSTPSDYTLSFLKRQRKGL
# B4: Mothers against decapentaplegic homolog 4 (Homo sapiens), Q13485 (parent)
# chain: B1 chain
# partner: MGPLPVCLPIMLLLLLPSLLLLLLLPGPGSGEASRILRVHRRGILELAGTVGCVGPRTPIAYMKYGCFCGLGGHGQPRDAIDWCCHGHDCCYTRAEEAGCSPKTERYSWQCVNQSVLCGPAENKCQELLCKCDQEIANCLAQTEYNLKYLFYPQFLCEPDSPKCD
# B5: Mothers against decapentaplegic homolog 4 (Homo sapiens), Q13485 (parent)
# chain: B1 chain
# partner: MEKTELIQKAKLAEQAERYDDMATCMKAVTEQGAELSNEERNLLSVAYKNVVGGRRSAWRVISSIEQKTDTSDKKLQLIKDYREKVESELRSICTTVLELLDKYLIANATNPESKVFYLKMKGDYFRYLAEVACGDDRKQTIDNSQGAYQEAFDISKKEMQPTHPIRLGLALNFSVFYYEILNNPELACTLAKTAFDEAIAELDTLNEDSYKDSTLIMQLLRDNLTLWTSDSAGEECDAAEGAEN
# B6: Mothers against decapentaplegic homolog 4 (Homo sapiens), Q13485 (parent)
# chain: B1 chain
# partner: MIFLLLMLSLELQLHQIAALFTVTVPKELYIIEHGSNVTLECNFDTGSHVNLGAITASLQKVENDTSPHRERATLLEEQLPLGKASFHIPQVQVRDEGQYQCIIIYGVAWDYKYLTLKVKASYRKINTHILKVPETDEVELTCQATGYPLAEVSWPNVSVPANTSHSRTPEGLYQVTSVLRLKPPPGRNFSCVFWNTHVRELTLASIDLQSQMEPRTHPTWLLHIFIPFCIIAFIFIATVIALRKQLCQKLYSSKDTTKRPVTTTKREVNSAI
# B7: Mothers against decapentaplegic homolog 4 (Homo sapiens), Q13485 (parent)
# chain: B1 chain
# partner: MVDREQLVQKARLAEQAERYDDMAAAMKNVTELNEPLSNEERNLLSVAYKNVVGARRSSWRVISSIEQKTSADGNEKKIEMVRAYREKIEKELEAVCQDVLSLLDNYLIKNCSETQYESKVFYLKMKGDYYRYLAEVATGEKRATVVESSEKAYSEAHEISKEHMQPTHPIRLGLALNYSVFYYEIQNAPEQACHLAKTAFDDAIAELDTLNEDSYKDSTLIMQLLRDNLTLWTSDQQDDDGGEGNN
# B8: Mothers against decapentaplegic homolog 4 (Homo sapiens), Q13485 (parent)
# chain: B1 chain
# partner: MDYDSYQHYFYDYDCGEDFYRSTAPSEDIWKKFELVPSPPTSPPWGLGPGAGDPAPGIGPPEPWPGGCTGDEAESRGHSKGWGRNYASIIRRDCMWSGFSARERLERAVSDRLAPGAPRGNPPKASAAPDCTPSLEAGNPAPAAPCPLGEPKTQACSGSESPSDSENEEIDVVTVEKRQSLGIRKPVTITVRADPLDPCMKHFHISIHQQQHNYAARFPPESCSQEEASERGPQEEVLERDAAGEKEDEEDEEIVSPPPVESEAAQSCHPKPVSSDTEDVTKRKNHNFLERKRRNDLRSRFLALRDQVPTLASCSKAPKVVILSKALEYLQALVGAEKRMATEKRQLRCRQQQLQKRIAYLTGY
# Variants of: B1
# Settings: with shc1_human SHC1, P29353
row,Variant,effect of a mutation on the interaction
1,R361H,with no effect

# Variants of: B1
# Settings: with shc1_human SHC1, P29353
# Remark: another data set of the same source
row,Variant,effect of a mutation on the interaction
1,R361C,with no effect

# Variants of: B1
# Settings: with shc1_human SHC1, P29353
# Remark: another data set of the same source
row,Variant,effect of a mutation on the interaction
1,G386D,with no effect

# Variants of: B1
# Settings: with shc1_human SHC1, P29353
# Remark: another data set of the same source
row,Variant,effect of a mutation on the interaction
1,D351H,with no effect

# Variants of: B2
# Settings: with kpci_human PRKCI
row,Variant,effect of a mutation on the interaction
1,R361H,with no effect

# Variants of: B2
# Settings: with kpci_human PRKCI
# Remark: another data set of the same source
row,Variant,effect of a mutation on the interaction
1,D351H,with no effect

# Variants of: B3
# Settings: with men1_human MEN1, O00255
row,Variant,effect of a mutation on the interaction
1,D351H,with no effect

# Variants of: B3
# Settings: with men1_human MEN1, O00255
# Remark: another data set of the same source
row,Variant,effect of a mutation on the interaction
1,G386D,with no effect

# Variants of: B3
# Settings: with men1_human MEN1, O00255
# Remark: another data set of the same source
row,Variant,effect of a mutation on the interaction
1,R361H,with no effect

# Variants of: B3
# Settings: with men1_human MEN1, O00255
# Remark: another data set of the same source
row,Variant,effect of a mutation on the interaction
1,R361C,with no effect

# Variants of: B4
# Settings: with pa2gx_human PLA2G10, O15496
row,Variant,effect of a mutation on the interaction
1,R361C,with no effect

# Variants of: B4
# Settings: with pa2gx_human PLA2G10, O15496
# Remark: another data set of the same source
row,Variant,effect of a mutation on the interaction
1,G386D,with no effect

# Variants of: B4
# Settings: with pa2gx_human PLA2G10, O15496
# Remark: another data set of the same source
row,Variant,effect of a mutation on the interaction
1,D351H,with no effect

# Variants of: B5
# Settings: with 1433t_human YWHAQ
row,Variant,effect of a mutation on the interaction
1,G386D,with no effect

# Variants of: B5
# Settings: with 1433t_human YWHAQ
# Remark: another data set of the same source
row,Variant,effect of a mutation on the interaction
1,R361H,with no effect

# Variants of: B5
# Settings: with 1433t_human YWHAQ
# Remark: another data set of the same source
row,Variant,effect of a mutation on the interaction
1,R361C,with no effect

# Variants of: B5
# Settings: with 1433t_human YWHAQ
# Remark: another data set of the same source
row,Variant,effect of a mutation on the interaction
1,D351H,with no effect

# Variants of: B6
# Settings: with pd1l2_human PDCD1LG2, Q9BQ51
row,Variant,effect of a mutation on the interaction
1,G386D,with no effect

# Variants of: B6
# Settings: with pd1l2_human PDCD1LG2, Q9BQ51
# Remark: another data set of the same source
row,Variant,effect of a mutation on the interaction
1,D351H,with no effect

# Variants of: B7
# Settings: with 1433g_human YWHAG
row,Variant,effect of a mutation on the interaction
1,R361C,with no effect

# Variants of: B7
# Settings: with 1433g_human YWHAG
# Remark: another data set of the same source
row,Variant,effect of a mutation on the interaction
1,D351H,with no effect

# Variants of: B8
# Settings: with mycl_human MYCL
row,Variant,effect of a mutation on the interaction
1,G386D,with no effect

# Variants of: B8
# Settings: with mycl_human MYCL
# Remark: another data set of the same source
row,Variant,effect of a mutation on the interaction
1,D351H,with no effect
